Earlier results on one substance are cited in paper PMC4737190.

The term Kd denotes the equilibrium constant for the complex coming apart.

Where “and” joins values, the source holds several entries; their conditions need not be identical. Equal entries are not always repeated.

For the data set, the target named is linear (Met1-linked) di-ubiquitin (Homo sapiens) (UniProt P0CG47).

Chain of NEMO UBAN (Q9Y6K9 242-350): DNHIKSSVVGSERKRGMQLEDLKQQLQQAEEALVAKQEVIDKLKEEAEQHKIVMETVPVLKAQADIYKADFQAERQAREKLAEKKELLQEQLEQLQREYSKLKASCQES

Regarding NEMO UBAN (from UniProt Q9Y6K9), the Kd was 1600 nM and 3700 nM.
